Test results from patent publication US20250136713A1 (DENALI THERAPEUTICS, published 2025).

These binders were tested against T1, recombinant HER2 extracellular domain (ECD) (human, UniProt P04626 23-652) (assay: SPR (Biacore 8K), antibody captured by anti-human Fab, HER2 ECD injected).
T1 construct: extracellular domain; also called HER2 ECD

Row | Binder | binding result
1 | Anti-HER2_D2 light chain control (SEQ ID NO: 94) paired with Anti-HER2_D4 heavy chain control (SEQ ID NO: 93) (antibody, human IgG1, kappa, V domains shown) VH: not shown VL: DIQMTQSPSSLSASVGDRVTITCKASQDVSIGVAWYQQKPGKAPKLLIYSASYRYTGVPSRFSGSGSGTDFTLTISSLQPEDFATYYCQQYYIYPYTFGQGTKVEIKR | no binding

What follows are binders tested against T1, recombinant HER2 extracellular domain … (assay: SPR (Biacore 8K), antibody captured by anti-human Fab, HER2 ECD injected, 1:1 fit).
Experimental: (§1) HER2 extracellular domain (ECD) binding affinities of engineered anti-HER2 antibodies were measured by SPR using a Biacore 8K instrument. Antibodies were captured on Biacore™ Series S CM5 sensor chips immobilized with mouse anti-human Fab (human Fab capture kit from GE Healthcare) followed by injections of serial 3-fold dilutions of recombinant HER2 ECD at a flow rate of 30 μL/min. Each sample was analyzed using a 3-minute association followed by a 10-minute dissociation. After each injection, the sensor chip was regenerated using a 50 mM glycine pH2.0 regeneration buffer. A 1:1 Languir model of simultaneous fitting of kₒₙ and koff was used for kinetics analysis.

Row | Binder | Kd [nM]
2 | Anti-HER2_D4 light chain control (SEQ ID NO: 87) paired with Anti-HER2_D2 heavy chain control (SEQ ID NO: 92) (antibody, human IgG1, kappa, V domains shown) VH: EVQLVESGGGLVQPGGSLRLSCAASGFTFTDYTMDWVRQAPGKGLEWVADVNPNSGGSIYNQRFKGRFTLSVDRSKNTLYLQMNSLRAEDTAVYYCARNLGPSFYFDYWGQGTLVTVSS VL: not shown | 42
3 | Anti-HER2_D2 heavy chain comprising the VH region of SEQ ID NO: 2 paired with Anti-HER2_D4 light chain control (SEQ ID NO: 87) (antibody, V domains shown) VH: EVQLVESGGGLVQPGGSLRLSCAASGFTFTDYTMDWVRQAPGKGLEWVADVNPNSGGSIYNQRFKGRFTLSVDRSKNTLYLQMNSLRAEDTAVYYCARNLGPLFYFDYWGQGTLVTVSS VL: not shown | 28
4 | Anti-HER2_D2 heavy chain comprising the VH region of SEQ ID NO: 1 paired with Anti-HER2_D4 light chain control (SEQ ID NO: 87) (antibody, V domains shown) VH: EVQLVESGGGLVQPGGSLRLSCAASGFTFTDYTMDWVRQAPGKGLEWVADVNPNSGQSIYNQRFKGRFTLSVDRSKNTLYLQMNSLRAEDTAVYYCARNLGPSFYFDYWGQGTLVTVSS VL: not shown | 28
5 | Anti-HER2_D2 heavy chain comprising the VH region of SEQ ID NO: 60 paired with Anti-HER2_D4 light chain control (SEQ ID NO: 87) (antibody, V domains shown) VH: EVQLVESGGGLVQPGGSLRLSCAASGFNFTDYTMDWVRQAPGKGLEWVADVNPNSGGSIYNQRFKGRFTLSVDRSKNTLYLQMNSLRAEDTAVYYCARNLGPSFYFDYWGQGTLVTVSS VL: not shown | 28
6 | Anti-HER2_D2 heavy chain comprising the VH region of SEQ ID NO: 61 paired with Anti-HER2_D4 light chain control (SEQ ID NO: 87) (antibody, V domains shown) VH: EVQLVESGGGLVQPGGSLRLSCAASGFKFTDYTMDWVRQAPGKGLEWVADVNPNSGGSIYNQRFKGRFTLSVDRSKNTLYLQMNSLRAEDTAVYYCARNLGPSFYFDYWGQGTLVTVSS VL: not shown | 17.5
7 | Anti-HER2_D2 heavy chain comprising the VH region of SEQ ID NO: 62 paired with Anti-HER2_D4 light chain control (SEQ ID NO: 87) (antibody, V domains shown) VH: EVQLVESGGGLVQPGGSLRLSCAASGFMFTDYTMDWVRQAPGKGLEWVADVNPNSGGSIYNQRFKGRFTLSVDRSKNTLYLQMNSLRAEDTAVYYCARNLGPSFYFDYWGQGTLVTVSS VL: not shown | 18.3
8 | Anti-HER2_D2 heavy chain comprising the VH region of SEQ ID NO: 63 paired with Anti-HER2_D4 light chain control (SEQ ID NO: 87) (antibody, V domains shown) VH: EVQLVESGGGLVQPGGSLRLSCAASGFHFTDYTMDWVRQAPGKGLEWVADVNPNSGGSIYNQRFKGRFTLSVDRSKNTLYLQMNSLRAEDTAVYYCARNLGPSFYFDYWGQGTLVTVSS VL: not shown | 22.1
9 | Anti-HER2_D2 heavy chain comprising the VH region of SEQ ID NO: 64 paired with Anti-HER2_D4 light chain control (SEQ ID NO: 87) (antibody, V domains shown) VH: EVQLVESGGGLVQPGGSLRLSCAASGFTFTDYTMDWVRQAPGKGLEWVADVNPNSGGSIYNRRFKGRFTLSVDRSKNTLYLQMNSLRAEDTAVYYCARNLGPSFYFDYWGQGTLVTVSS VL: not shown | 21
10 | Anti-HER2_D2 heavy chain comprising the VH region of SEQ ID NO: 65 paired with Anti-HER2_D4 light chain control (SEQ ID NO: 87) (antibody, V domains shown) VH: EVQLVESGGGLVQPGGSLRLSCAASGFTFTDYTMDWVRQAPGKGLEWVADVNPNSGGSIYNHRFKGRFTLSVDRSKNTLYLQMNSLRAEDTAVYYCARNLGPSFYFDYWGQGTLVTVSS VL: not shown | 35
11 | Anti-HER2_D2 heavy chain comprising the VH region of SEQ ID NO: 66 paired with Anti-HER2_D4 light chain control (SEQ ID NO: 87) (antibody, V domains shown) VH: EVQLVESGGGLVQPGGSLRLSCAASGFTFTDYTMDWVRQAPGKGLEWVADVNPNSGGSIYNTRFKGRFTLSVDRSKNTLYLQMNSLRAEDTAVYYCARNLGPSFYFDYWGQGTLVTVSS VL: not shown | 32.3
12 | Anti-HER2_D2 heavy chain comprising the VH region of SEQ ID NO: 67 paired with Anti-HER2_D4 light chain control (SEQ ID NO: 87) (antibody, V domains shown) VH: EVQLVESGGGLVQPGGSLRLSCAASGFTFTDYTMDWVRQAPGKGLEWVADVNPNSGGSIYNQRFKGRFTLSVDRSKNTLYLQMNSLRAEDTAVYYCARNLGPWFYFDYWGQGTLVTVSS VL: not shown | 6.1
13 | Anti-HER2_D2 heavy chain comprising the VH region of SEQ ID NO: 68 paired with Anti-HER2_D4 light chain control (SEQ ID NO: 87) (antibody, V domains shown) VH: EVQLVESGGGLVQPGGSLRLSCAASGFTFTDYTMDWVRQAPGKGLEWVADVNPNSGGSIYNQRFKGRFTLSVDRSKNTLYLQMNSLRAEDTAVYYCARNLGPFFYFDYWGQGTLVTVSS VL: not shown | 9.8
14 | Anti-HER2_D2 heavy chain comprising the VH region of SEQ ID NO: 69 paired with Anti-HER2_D4 light chain control (SEQ ID NO: 87) (antibody, V domains shown) VH: EVQLVESGGGLVQPGGSLRLSCAASGFTFTDYTMDWVRQAPGKGLEWVADVNPNSGGSIYNQRFKGRFTLSVDRSKNTLYLQMNSLRAEDTAVYYCARNLGPDFYFDYWGQGTLVTVSS VL: not shown | 10.2
15 | Anti-HER2_D2 heavy chain comprising the VH region of SEQ ID NO: 70 paired with Anti-HER2_D4 light chain control (SEQ ID NO: 87) (antibody, V domains shown) VH: EVQLVESGGGLVQPGGSLRLSCAASGFTFTDYTMDWVRQAPGKGLEWVADVNPNSGGSIYNQRFKGRFTLSVDRSKNTLYLQMNSLRAEDTAVYYCARNLGPYFYFDYWGQGTLVTVSS VL: not shown | 30

Biological target: T1, recombinant HER2 extracellular domain …
Assay: as above
Remark: another data set of the same source
Experimental: as §1

Row | Binder | Kd [nM]
16 | SEQ ID NO: 10 light chain paired with anti-HER2_D2 heavy chain comprising the VH region of SEQ ID NO: 1 (antibody, V domains shown) VH: EVQLVESGGGLVQPGGSLRLSCAASGFTFTDYTMDWVRQAPGKGLEWVADVNPNSGQSIYNQRFKGRFTLSVDRSKNTLYLQMNSLRAEDTAVYYCARNLGPSFYFDYWGQGTLVTVSS VL: not shown | 4.2
17 | SEQ ID NO: 10 light chain paired with anti-HER2_D2 heavy chain comprising the VH region of SEQ ID NO: 2 (antibody, V domains shown) VH: EVQLVESGGGLVQPGGSLRLSCAASGFTFTDYTMDWVRQAPGKGLEWVADVNPNSGGSIYNQRFKGRFTLSVDRSKNTLYLQMNSLRAEDTAVYYCARNLGPLFYFDYWGQGTLVTVSS VL: not shown | 6.2
18 | SEQ ID NO: 10 light chain paired with anti-HER2_D2 heavy chain comprising the VH region of SEQ ID NO: 3 (antibody, V domains shown) VH: EVQLVESGGGLVQPGGSLRLSCAASGFTFTDYTMDWVRQAPGKGLEWVADVNPNSGQSIYNQRFKGRFTLSVDRSKNTLYLQMNSLRAEDTAVYYCARNLGPLFYFDYWGQGTLVTVSS VL: not shown | 2.1

Biological target: T1, recombinant HER2 extracellular domain …
Assay: as above
Remark: another data set of the same source
Experimental: as §1

Row | Binder | Kd [nM]
19 | SEQ ID NO: 10 light chain paired with Anti-HER2_D2 heavy chain control (SEQ ID NO: 92) (antibody, human IgG1, kappa, V domains shown) VH: EVQLVESGGGLVQPGGSLRLSCAASGFTFTDYTMDWVRQAPGKGLEWVADVNPNSGGSIYNQRFKGRFTLSVDRSKNTLYLQMNSLRAEDTAVYYCARNLGPSFYFDYWGQGTLVTVSS VL: not shown | 14
20 | SEQ ID NO: 9 light chain paired with Anti-HER2_D2 heavy chain control (SEQ ID NO: 92) (antibody, human IgG1, kappa, V domains shown) VH: EVQLVESGGGLVQPGGSLRLSCAASGFTFTDYTMDWVRQAPGKGLEWVADVNPNSGGSIYNQRFKGRFTLSVDRSKNTLYLQMNSLRAEDTAVYYCARNLGPSFYFDYWGQGTLVTVSS VL: not shown | 13

The binders below were run against T1, recombinant HER2 extracellular domain … (assay: SPR (Biacore 8K), antibody captured by anti-human Fab, HER2 ECD injected, 1:1 fit; LC SEQ ID NO: 87 paired with Anti-HER2_D2 heavy chain control (SEQ ID NO: 92)).
Experimental: as §1

Row | Binder | Kd [nM]
21 | Anti-HER2_D4 light chain control (SEQ ID NO: 87) paired with Anti-HER2_D2 heavy chain control (SEQ ID NO: 92) (antibody, human IgG1, kappa, V domains shown) VH: EVQLVESGGGLVQPGGSLRLSCAASGFTFTDYTMDWVRQAPGKGLEWVADVNPNSGGSIYNQRFKGRFTLSVDRSKNTLYLQMNSLRAEDTAVYYCARNLGPSFYFDYWGQGTLVTVSS VL: not shown | 41
